Two molecules from publication PMC9599074, “Integration of Power-Free and Self-Contained Microfluidic Chip with Fiber Optic Particle Plasmon Resonance Aptasensor for Rapid Detection of SARS-CoV-2 Nucleocapsid Protein” can be followed below.

By Kd is commonly meant the concentration at which binding is half-saturated. A low value points to a tighter complex.

This data set addresses SARS-CoV-2 nucleocapsid protein (N-protein) (SARS-CoV-2, UniProt P0DTC9 1-419). As to the kind of experiment: FOPPR biosensor kinetics; 1x PBS pH 7.4, […]; temperature not stated. Conditions: protein: commercial; chain copies: 2.

B1: NP-A61 (ssDNA)
DNA: GCTGGATGTTGACCTTTACAGATCGGATTCTGTGGGGCGTTAAACTGACACATCCAGC
modifications: terminal amine (end not stated), coupled to carboxyl AuNP
Turning to B1, the dissociation constant (Kd) came to 5.02 nM.

B2: NP-A48 (ssDNA)
DNA: GCTGGATGTCGCTTACGACAATATTCCTTAGGGGCACCGCTACATTGACACATCCAGC
modifications: terminal amine (end not stated), coupled to carboxyl AuNP
B2 came in with a Kd of 2.63 nM.
